Results taken from patent US20260242478A1 (published 2026).
Where no end group is shown, it is not given here.

B1: Phage-2466 (peptide, not shown: large carriers)
peptide: VVKWCTPSWMCTGF
modifications: cysteine pairing not given here; also: displayed as fusion to phage pIII
notes: Clonal phage of the Peptide-180 optimisation library, tested as crude supernatant
B2: Phage-2470 (peptide, not shown: large carriers)
peptide: VDKLCRPAWMCVAS
modifications: cysteine pairing not given here; also: displayed as fusion to phage pIII
notes: as for B1
B3: Phage-2415 (peptide)
peptide: LWKWCTPPWMCEVS
modifications: cysteine pairing not given here; also: displayed on bacteriophage by fusion to pIII
B4: Phage-2418 (peptide)
peptide: FSKLCIPAWMCSEE
modifications: cysteine pairing not given here; also: displayed on bacteriophage by fusion to pIII
B5: Phage-2417 (peptide)
peptide: FDPWCIPLWMCEGM
modifications: cysteine pairing not given here; also: displayed on bacteriophage by fusion to pIII
B6: Phage-2469 (peptide, not shown: large carriers)
peptide: VSKWCTPAWMCSAM
modifications: cysteine pairing not given here; also: displayed as fusion to phage pIII
notes: as for B1
B7: Phage-2412 (peptide)
peptide: GEKWCIPDWMCAAA
modifications: cysteine pairing not given here; also: displayed on bacteriophage by fusion to pIII
B8: Phage-2413 (peptide)
peptide: LDMRCTPAWMCEGF
modifications: cysteine pairing not given here; also: displayed on bacteriophage by fusion to pIII
B9: Phage-2414 (peptide)
peptide: VEKWCTPPWMCRFD
modifications: cysteine pairing not given here; also: displayed on bacteriophage by fusion to pIII
B10: Phage-2416 (peptide)
peptide: SERWCIPQWMCTAP
modifications: cysteine pairing not given here; also: displayed on bacteriophage by fusion to pIII
B11: Phage-2406 (peptide)
peptide: PDKWCIPQWMCSQM
modifications: cysteine pairing not given here; also: fused to phage pIII (clonal phage display)
B12: Phage-2467 (peptide, not shown: large carriers)
peptide: GDKWCIPDWMCVQS
modifications: cysteine pairing not given here; also: displayed as fusion to phage pIII
notes: as for B1
B13: Phage-2468 (peptide, not shown: large carriers)
peptide: FEKWCIPAWMCEQV
modifications: cysteine pairing not given here; also: displayed as fusion to phage pIII
notes: as for B1
B14: Phage-2403 (peptide)
peptide: IEKWCIPQWMCGNP
modifications: cysteine pairing not given here; also: fused to phage pIII (clonal phage display)

Legend:
PSMA Fab (006 PSMA Fab) [1] = biological target: T1, PSMA Fab (006 PSMA Fab); test: clonal phage ELISA on biotinylated PSMA Fab captured on neutravidin plates, anti-M13-HRP detection;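 note: crude clonal phage supernatants added to wells preincubated with PSMA antigen or with blocking buffer only (no wash between), briefly incubated, then washed before detecting bound phage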
T1 construct: In the phage ELISA the PSMA Fab was biotinylated and captured on neutravidin coated plates; also called Anti-PSMA Fab; anti-PSMA Fab
Procedure: (§1) Clonal phage were harvested as crude supernatants and screened via standard ELISAs. […] Prior to the addition of clonal phage. wells were incubated with blocking buffer and PSMA antigen or blocking buffer alone. Without washing or aspirating, clonal phage supernatants were then added to the wells and incubated for a short time. Wells were then washed followed by detection of bound phage using a horse radish conjugated anti-M13 antibody.

PSMA Fab (006 PSMA Fab) [2] = biological target: T1, PSMA Fab (006 PSMA Fab); test: clonal phage ELISA on captured PSMA Fab, wells pre-incubated with PSMA antigen as competitor (column head not shown, assumed)
PSMA Fab [3] = biological target: T2, PSMA Fab (biotinylated (site not given)); test: phage ELISA: clonal phage supernatant on biotinylated PSMA Fab captured on neutravidin plate, blocking buffer alone; anti-M13 HRP detection;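 note: crude clonal phage supernatants added to wells preincubated with blocking buffer, incubated briefly, bound phage detected with a horseradish-conjugated anti-M13 antibody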
T2 construct: Biotinylated PSMA Fab captured on neutravidin plates in the phage ELISA; also called Anti-PSMA Fab; 006 PSMA Fab

PSMA Fab [4] = biological target: T2, PSMA Fab; test: phage ELISA on captured biotinylated PSMA Fab, wells pre-incubated with PSMA antigen (competitor: PSMA); anti-M13 HRP detection
Procedure: as §1

PSMA Fab [5] = biological target: T3, PSMA Fab; test: phage ELISA, biotinylated PSMA Fab on neutravidin plate, bound phage detected with anti-M13-HRP
T3 construct: also called Anti-PSMA Fab; 006 PSMA Fab
Procedure: as §1

PSMA Fab [6] = biological target: T3, PSMA Fab; test: phage ELISA, biotinylated PSMA Fab on neutravidin plate pre-incubated with PSMA antigen as competitor, anti-M13-HRP
Procedure: as §1

Row | Binder | Phage binding ELISA signal, Anti-PSMA Fab (PSMA Fab (006 PSMA Fab) [1]) | Phage binding ELISA signal, Anti-PSMA Fab with PSMA antigen (PSMA Fab (006 PSMA Fab) [2]) | other results
1 | VAKWCIPSWMCETV (cysteine pairing not given here; also: displayed as fusion to phage pIII) [Phage-2419] | 1.33 | 0.0735 | –
2 | B1 | – | – | Phage binding ELISA signal, Anti-PSMA Fab (PSMA Fab [3]): 1.24; Phage binding ELISA signal, Anti-PSMA Fab in presence of PSMA (PSMA Fab [4]): 0.0837
3 | B2 | – | – | Phage binding ELISA signal, Anti-PSMA Fab (PSMA Fab [3]): 1.24; Phage binding ELISA signal, Anti-PSMA Fab in presence of PSMA (PSMA Fab [4]): 0.0775
4 | B3 | 1.34 | 0.0864 | –
5 | MHHWCIPAWMCSTE [Phage-2410] | 1.35 | 0.0812 | –
6 | HTTWCTPAWMCQGF [Phage-2404] | – | – | Phage binding ELISA signal, Anti-PSMA Fab (PSMA Fab [5]): 1.36; Phage binding ELISA signal, Anti-PSMA Fab with PSMA antigen (PSMA Fab [6]): 0.0895
7 | DVRWCTPPWMCVAM [Phage-2400] | – | – | Phage binding ELISA signal, Anti-PSMA Fab (PSMA Fab [5]): 1.37; Phage binding ELISA signal, Anti-PSMA Fab with PSMA antigen (PSMA Fab [6]): 0.078
8 | B4 | 1.34 | 0.0956 | –
9 | B5 | 1.34 | 0.0667 | –
10 | B6 | – | – | Phage binding ELISA signal, Anti-PSMA Fab (PSMA Fab [3]): 1.24; Phage binding ELISA signal, Anti-PSMA Fab in presence of PSMA (PSMA Fab [4]): 0.099
11 | B7 | 1.34 | 0.0769 | –
12 | B8 | 1.34 | 0.0768 | –
13 | TVKWCVPPWMCSVP [Phage-2407] | 1.36 | 0.0764 | –
14 | B9 | 1.34 | 0.074 | –
15 | MEKWCIPSWMCVGM [Phage-2405] | 1.36 | 0.0682 | –
16 | B10 | 1.34 | 0.0763 | –
17 | WEKWCTPAWMCAVA [Phage-2399] | – | – | Phage binding ELISA signal, Anti-PSMA Fab (PSMA Fab [5]): 1.37; Phage binding ELISA signal, Anti-PSMA Fab with PSMA antigen (PSMA Fab [6]): 0.0716
18 | B11 | 1.36 | 0.0822 | –
19 | VDHWCTPEWMCVMM [Phage-2408] | 1.36 | 0.0963 | –
20 | B12 | – | – | Phage binding ELISA signal, Anti-PSMA Fab (PSMA Fab [3]): 1.24; Phage binding ELISA signal, Anti-PSMA Fab in presence of PSMA (PSMA Fab [4]): 0.0692
21 | EIKWCIPSWMCNTL (cysteine pairing not given here; also: displayed as fusion to phage pIII) [Phage-2420] | 1.33 | 0.0772 | –
22 | QAKWCIPQWMCESY [Phage-2411] | 1.35 | 0.0648 | –
23 | B13 | – | – | Phage binding ELISA signal, Anti-PSMA Fab (PSMA Fab [3]): 1.24; Phage binding ELISA signal, Anti-PSMA Fab in presence of PSMA (PSMA Fab [4]): 0.0596
24 | MQHWCVPPWMCQSL [Phage-2401] | – | – | Phage binding ELISA signal, Anti-PSMA Fab (PSMA Fab [5]): 1.37; Phage binding ELISA signal, Anti-PSMA Fab with PSMA antigen (PSMA Fab [6]): 0.082
25 | VMKWCTPEWMCQVF [Phage-2402] | – | – | Phage binding ELISA signal, Anti-PSMA Fab (PSMA Fab [5]): 1.37; Phage binding ELISA signal, Anti-PSMA Fab with PSMA antigen (PSMA Fab [6]): 0.0622
26 | B14 | – | – | Phage binding ELISA signal, Anti-PSMA Fab (PSMA Fab [5]): 1.36; Phage binding ELISA signal, Anti-PSMA Fab with PSMA antigen (PSMA Fab [6]): 0.0574
27 | YIKWCTPPWMCELM [Phage-2409] | 1.35 | 0.15 | –
